These results are taken from patent publication US20060280645A1, “Method for terminal sterilization of transdermal delivery devices” (priority 2005, published 2006).

The data set can be described thus: Terminal sterilization by e-beam irradiation: BNP purity and degradation products by RP-HPLC. The data set is classed as physicochemical. To be noted: best performing system (Example 4). The procedure: FIGS. 14-16 detail the major degradation pathways for BNP coated on microprojections for all conditions treated by e-beam. […] All modes of degradation are reduced for the microprojection members packaged with desiccant and pre-dried retainer rings and purged with argon.
In this example, methionine from JT Baker (Phillipsburg, N.J.) was added to the BNP formulations in the amount of 1% by weight. These coating formulations were then irradiated using either e-beam or gamma radiation at varying temperatures and under varying atmospheric conditions. FIGS. 17-20 show the purity and degradation of the samples following gamma irradiation and FIGS. 21-24 show the purity and degradation of the samples following e-beam irradiation.
Further, systems packaged with pre-dried retainer rings performed better than systems stored with desiccant when terminally sterilized by e-beam. The best performing system retained 95.1% of the BNP purity, representing only approximately a 2% drop from the initial material purity.

Turning to BNP, the BNP purity retained turned out to be 95.1% and the “drop from the initial material purity” value was roughly 2%.
